Experimental data taken from patent US20200291109A1, “Composition to induce bone marrow stem cell mobilization” (Universitá degli Studi di Padova, priority 2014, published 2020).

Experiments:
[1] = test system: SDF-1α/CXCL12 expression in human mesenchymal stem cells; test: Induction of SDF-1α/CXCL12 gene expression in human mesenchymal stem cells by oncostatin M (qPCR); assay type: cell-based; settings: increasing concentrations of OSM
Procedure: Therefore, the effect of such media on the gene expression of SDF-1α/CXCL12 in human (stromal) mesenchymal stem cells by qPCR was evaluated (primers forward ATGCCCATGCCGATTCTT [SEQ ID NO. 5]; reverse […] [SEQ ID NO. 6]; reference sequence NCBI NM_000609.6).

LKS stem cells = test: G-CSF alone induced mobilization of LKS stem cells in diabetic mice; assay type: in vivo; settings: G-CSF only
Source text: In order to obtain in vivo validation of such mechanism, inhibition of oncostatin M (OSM) has been carried out in mice induced with diabetes by injecting streptozotocin as mentioned above and analyzed after 4 weeks from hyperglycemia development, by intraperitoneal injection of a polyclonal neutralizing antibody (AF-495-NA, R&D Systems) specific for murine oncostatin M (OSM), before beginning a marrow stimulation cycle by a subcutaneous injection of G-CSF ([…] for 4 consecutive days).

B1: oncostatin M (OSM): 28-kDa glycoprotein of cytokine family, macrophage derived factor (protein)
chain: AAIGSCSKEYRVLLGQLQKQTDLMQDTSRLLDPYIRIQGLDVPKLREHCRERPGAFPSEETLRGLGRRGFLQTLNATLGCVLHRLADLEQRLPKAQDLERSGLNIEDLEKLQMARPNILGLRNNIYCMAQLLDNSDTAEPTKAGRGASQPPTPTPASDAFQRKLEGCRFLHGYHRFMHSVGRVFSKWGESPNRSRR
expression of SDF-1α/CXCL12 [1]: progressively increase the expression

B2: G-CSF: granulocyte colony stimulating factor, growth factor used for stem cell mobilization (protein, UniProt P09919 31-207, looked up)
Granulocyte …: TPLGPASSLPQSFLLKCLEQVRKIQGDGAALQEKLVSECATYKLCHPEELVLLGHSLGIPWAPLSSCPSQALQLAGCLSQLHSGLFLYQGLLQALEGISPELGPTLDTLQLDVADFATTIWQQMEELGMAPALQPTQGAMPAFASAFQRRAGGVLVASHLQSFLEVSYRVLRHLAQP
mobilization of LKS stem cells (LKS stem cells): not able to induce mobilization
